Source: the supplement of paper PMC9170038

Columns and labels:
MS2 coat protein [1] = assay: apparent KD of MS2 coat protein, switch OFF state (with FMN for OFF switches, without FMN for ON switches); designed switch direction (-1 OFF switch, 1 ON switch): -1; higher = weaker reporter binding; conditions: FMN input: 0 or 200 uM; Eterna round: R93 (includes R88 designs)
Outline: (§1)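 Apparent KD is reported per design as the median of normalised binding-curve fits across its clusters. The RNA switches were made by on-chip transcription from Illumina sequencing clusters. SNAP-549-labelled MS2 coat protein was then added in twofold steps (0.7 or 1.5 nM to 3 µM; 0.8–1.5 h to 10–20 min per step) in 100 mM Tris-HCl pH 7.5, 80 mM KCl, 4 mM MgCl2, without or with constant ligand.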

MS2 coat protein [2] = assay: apparent KD of MS2 coat protein, switch ON state; designed switch direction (-1 OFF switch, 1 ON switch): -1; higher = weaker reporter binding; conditions: FMN input: 0 or 200 uM; Eterna round: R93 (includes R88 designs)
Outline: as §1

Row | Sequence | apparent KD of MS2 coat protein (MS2 coat protein [1]) [nM] | apparent KD of MS2 coat protein (MS2 coat protein [2]) [nM]
1 | AAAAGCUCAGGAUAUACGGUCUGUUGUUGAAAAAGUAAAAAACAUGAGGAUCACCCAUGUAGAAGGGAGCGAAA [Exclusion2-cac1] | 115 | 39.7
2 | AAAAGCUUAGGAUAUACACAAAAUAAAGGAGUGAUAUCAGAACAUGAGGAUCACCCAUGUAGAAGGAAGAAAUA [Ceerle] | 58 | 65.3
3 | AAAAGGAUAGGAUAUACAUGAGGAUCACCCAUGUGAAUAAAUAAAAUAAAUAAAUAAAGUAGAAGGGUCAAUAA [LROPPY Exclusion 3 - v05_deltaG=3.6 break up the As] | 25.4 | 27.8
4 | AAAAGGGCAGGAUAUGCGUACUCACGGGAAAACUGAAUGGUACAUGAGGAUCACCCAUGUAGAAGGGCUAAAAA [Dora Explored 19 - Jieux - Exclusion 2] | 37.8 | 54.6
5 | AAAAGGUCAGGAUAUGCCCGCCGGGUGGGAAGGCCGGGUGGGUAGAAGGGACAUGAGGAUCACCCAUGUAAAAA [Opal 42] | 47.9 | 52.4
6 | AAAAGUAGAGGAUAUACAUGAGGAUCACCCAUGUAGAAAGGAAGUAUAUAUAUGGCGUGUAGAAGGCUGCAUGA [Mat - Mod of Nando] | 28 | 26.7
7 | AAAAGUGGAGGAUAUACAUGAGGAUCACCCAUGUGUAAAAAUAAAAACACAAAAGAAAGUAGAAGGCCACAAAA [Ex 3 May 9] | 55.2 | 24.1
8 | AAAAUACAUGAGGAUCACCCAUGUCAGGAUAUGCUAAAAAAAAAAUUAAAAAAAAAAUGUAGAAGGGACUAAAA [Exclusion Z2] | 40 | 53.7
9 | AAAAUACAUGAGGAUCACCCAUGUGAGGAUAUGCAAAACCCAUAUAAAAAGGGAAAAAGCAGAAGGUACAAAAA [wbt round 1 mod 14] | 27.7 | 18.6
10 | AAAAUACAUGAGGAUCACCCAUGUGAGGAUAUGCUAUGGAAAAAUAAAAUAAAACAUAGCAGAAGGCACAAAAA [Mat - Exclusion 1 - Eli mod - D41] | 73.4 | 34.3
11 | AAAAUACAUGAGGAUCACCCAUGUGAGGAUAUUAGAAAGGGAAUAAAAUAACCCAAACUAAGAAGGCACAAAAA [Ex 1 May 27] | 35.3 | 28.5
12 | AAAAUACAUGAGGAUCACCCAUGUGAGGAUAUUAGAAAGGGAAUAAAAUAACUUAAACUAAGAAGGCACAAAAA [Ex 1 May 28] | 27.7 | 18.2
13 | AAAAUACGAGGAUAUACAUGAGGAUCACCCAUGUCAAAAAAUGACUACACAAAAGAAAGUAGAAGGCGUAAAAG [Mat - Exclusion 3 - Mayanna mod - D127] | 41.8 | 24
14 | AAAAUGUCAGGAUAUGCGAAGGCGUCUGACAGACGAGGAUUGCAGAAGGGACAUGAGGAUCACCCAUGUAAAAA [A Change in Energy (MS2 Riboswitch - Exclusion 4)] | 131 | 84.3
15 | AAAAUGUGAGGAUAUCUGGAUAGGAAAAAGAAAACCUAUCCAGAGAAGGCACAUGAGGAUCACCCAUGUAAAAA [JL cataway mod 4] | 114 | 121
16 | AAAAUGUGAGGAUAUGUACGAAAAAAUAAAAAAAUAAAAGUACAGAAGGCACAUGAGGAUCACCCAUGUGUGGG [EX4 400: Minimal 13] | 76.1 | 113
17 | AAAAUGUUAGGAUAUGUGAAGGCGUCUGAUAGACGAGGCCUGCAGAAGGAACAUGAGGAUCACCCAUGUAAAAA [Mod 3 of Nando's Round 1 Power Srip] | 25.6 | 34
18 | AAACACGGAGGAUAUACACCAUACAAACCUCUAAACAAAAAACAUGAGGAUCACCCAUGUAGAAGGCCGAACAA [Default title] | 28 | 24.7
19 | AAACCACAUGAGGAUCACCCAUGUCAGGAUAUGAACGAAAAUAAAUAAAAAUAAAAGUUCAGAAGGGACAAAAA [66%, Wbt, 13] | 77.2 | 42.3
20 | AAAGAUACAGGAUAUACAUGAGGAUCACCCAUGUGAGACCAAAAAUGGGAAAAAGAAAGUAGAAGGGUAUAAAA [Ex 3 May 36] | 91.7 | 39.9
21 | AAAGAUGCAGGAUAUACAUGAGGAUCACCCAUGUUAGACCAAAAAUGGGAAAAAGAAAGUAGAAGGGCAUAAAA [Ex 3 May 34] | 203 | 43.2
22 | AAAGAUGCAGGAUAUACAUGAGGAUCACCCAUGUUAGACCUGAAAAAGGGAAAAGAAAGUAGAAGGGCAUAAUA [Ex 3 May 31] | 11.5 | 12.8
23 | AAAGGACGAGGAUAUACAUGAGGAUCACCCAUGUAAAAAACAUAGUAAAAGUGCUUGUGUAGAAGGCGUCCAAA [Meechl Ex3 2 R2 v9] | 194 | 78.1

Row | Sequence | apparent KD of MS2 coat protein (MS2 coat protein [1]) [nM] | apparent KD of MS2 coat protein (MS2 coat protein [2]) [nM]
24 | AAAGGGUCAGGAUAUCGUUUAAUAAUAAAAUAAAUAAAGAACGAGAAGGGACAUGAGGAUCACCCAUGUAUAAA [May 76] | 89.8 | 65.3
25 | AAAGUACGAGGAUAUACAUAGAUACAGAUACAUGUAGACGUACAUGAGGAUCACCCAUGUAGAAGGCGUACAAG [Mat - Same state - Mayanna Mod - D116] | 327 | 172
26 | AAAUAGCAAGGAUAUACAUGAGGAUCACCCAUGUAAAAAUGGAAAGUAAAAGAAUAAAGUAGAAGGUGCAAAUA [Ex 3 Tesla 2] | 36.9 | 20.6
27 | AAAUAGCAAGGAUAUACAUGAGGAUCACCCAUGUAAGGAUGGUAAGUAUUAGAAGAAAGUAGAAGGUGCAAAUA [Ex 3 Tesla 5] | 55.3 | 33.6
28 | AAAUAGUUAGGAUAUACAUGAGGAUCACCCAUGUGCACUUAUGGAGAAUAGGGUAAUGGUAGAAGGGACUAAAA [EX2 Malc#21] | 39.7 | 36.2
29 | AAAUUGUCAGGAUAUCCUAUAACUCUAAAAUAGAGGAGAUAGGAGAAGGGACAUGAGGAUCACCCAUGUAAAAC [May 86] | 61.7 | 43.7
30 | AAAUUGUCAGGAUAUCCUAUAAUAAUAAAAUAGAGGAAAUAGGAGAAGGGACAUGAGGAUCACCCAUGUAAAAC [May 84] | 37 | 49.2
31 | AAAUUGUCAGGAUAUCGUAGAACAGGGAAAACCUGGAGCUACGAGAAGGGACAUGAGGAUCACCCAUGUAAAAC [May 93] | 71.1 | 62.7
32 | AAAUUGUCAGGAUAUCUUAGAACUCUAAAAUAGAGGAGCUAAGAGAAGGGACAUGAGGAUCACCCAUGUAAAAC [May 89] | 71 | 86.5
33 | AACAAGACAGGAUAUACAUGAGGAUCACCCAUGUGAGAAUAAAGUGGCGUAACACAAAGUAGAAGGGUCAUGGA [Ruby 6] | 55.5 | 32.6
34 | AACAAGUCAGGAUAUCAUACUAAUCACUUGCUUUAAAUGUAUGAGAAGGGACAUGAGGAUCACCCAUGUAAAGA [Exclusion4-cac3] | 34.1 | 46.8
35 | AACAAGUGAGGAUAUUGGAAAAGUAAAUAAGUAAAACAAAACAAGAAGGCACAUGAGGAUCACCCAUGUAAAUA [JR_Exc004_Sub017] | 17.9 | 21.9
36 | AACACACAUGAGGAUCACCCAUGUCAGGAUAUGCCGGGUUAGAGCCAACUGAAAAACCGUAGAAGGGACGAAAA [Bilbo Confounded 9 - Jieux - Exclusion 1] | 61.6 | 66.9
37 | AACAGACAUGAGGAUCACCCAUGUGAGGAUAUGGCAAUCGAUAGAACUAGAAUGACAACCAGAAGGCACAGCAA [JR_Exc001_Sub004] | 86.3 | 77.6
38 | AACAGGACAGGAUAUACAUGAGGAUCACCCAUGUAGGAAUUAAGCAGAGUACCACACAGUAGAAGGGUCAUGGA [Ruby 26] | 30.4 | 27.6
39 | AACAGGACAGGAUAUACAUGAGGAUCACCCAUGUCACAACAAAGCAGCGCAACACAAAGUAGAAGGGUCAUGGA [Ruby 13] | 59.1 | 75.8
40 | AACAGGUCAGGAUAUGUGGAAAAAAUAAAAAAAAUAAAAACACAGAAGGGACAUGAGGAUCACCCAUGUAAACA [May 23] | 60.4 | 47.2
41 | AACAGGUUAGGAUAUAUCCAACAAAUAAAAAAAAUAUAAGGAUAGAAGGAACAUGAGGAUCACCCAUGUUAACA [May 30] | 17.1 | 20.8
42 | AACAGUACAGGAUAUACAUGAGGAUCACCCAUGUAAAAAGGGAGUGGCGUACCACAAAGUAGAAGGGUACUGGA [Moding Maslow revisited (73) 7] | 172 | 36.9
43 | AACAGUACAGGAUAUACAUGAGGAUCACCCAUGUAAAAAUAAUAAAAGGGAAAAACUCGUAGAAGGGUACUGGA [Moding Maslow revisited (73) 16] | 104 | 63.2
44 | AACAGUACAGGAUAUACAUGAGGAUCACCCAUGUAAAAGGGAAGUGGCGUACCACAAAGUAGAAGGGUACUGGA [Moding Maslow revisited (73) 6] | 121 | 37.6
45 | AACAGUACAGGAUAUACAUGAGGAUCACCCAUGUGAAAAUUAAGUGGAAAACCACAAAGUAGAAGGGUACUGAA [Mat - Exclusion 3 - Eli mod - D58] | 61.7 | 21.4
